Experimental findings from patent US20090041794A1 (IMMATICS BIOTECHNOLOGIES, published 2009) are described below.

This assay deals with T1, HLA-A*0201 molecule on TAP-deficient T2 cells (human).
T1 construct: also called HLA-A2
Description: in vitro reconstitution (T2 whole cell-binding) assay on TAP-deficient T2 cells, compared with the Flu reference peptide.

B1: iLR2 146-154 (ALCNTDSPL) (peptide)
peptide: ALCNTDSPL
notes: Synthetic peptide bought from Biosynthan, more than 90% purity; also called RPS-002
As to B1, the binding result is reported as “binds”.

B2: iLR1 59-68 (LLAARAIVAI) (peptide)
peptide: LLAARAIVAI
notes: Synthetic peptide bought from Biosynthan, more than 90% purity; also called RPS-001
As for B2, the binding result is “binds”.
